Consider six molecules from patent US20250270343A1 (Alector, published 2025).

Test [1] concerns the target T1, soluble cynomolgus GPNMB (recombinant extracellular domain) (cynomolgus, UniProt Q14956 23-499 (human entry), limits assumed).
T1 chain: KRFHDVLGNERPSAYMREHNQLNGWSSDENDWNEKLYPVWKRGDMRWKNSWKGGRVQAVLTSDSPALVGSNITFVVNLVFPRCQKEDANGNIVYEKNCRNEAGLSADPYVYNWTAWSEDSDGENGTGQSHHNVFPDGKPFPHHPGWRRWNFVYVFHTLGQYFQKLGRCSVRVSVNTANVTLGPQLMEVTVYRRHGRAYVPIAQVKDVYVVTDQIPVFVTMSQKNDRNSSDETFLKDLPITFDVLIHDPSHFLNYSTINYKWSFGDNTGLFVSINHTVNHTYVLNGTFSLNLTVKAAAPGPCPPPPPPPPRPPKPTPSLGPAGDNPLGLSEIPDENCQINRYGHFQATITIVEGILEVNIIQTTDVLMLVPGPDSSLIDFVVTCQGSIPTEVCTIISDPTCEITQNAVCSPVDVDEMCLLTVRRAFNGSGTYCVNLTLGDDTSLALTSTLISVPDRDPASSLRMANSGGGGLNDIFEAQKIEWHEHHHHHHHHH
Kind of test: SPR binding. The protocol:
Binding kinetics of human anti-GPNMB IgG1 antibodies of the present disclosure to human, cynomolgus, and mouse GPNMB were evaluated using a Carterra LSA instrument (Carterra, Salt Lake City, UT). […] A HC200M sensor chip (Carterra) was activated using the single channel flow cell with a 7-minute injection of a 1:1:1 mixture of 100 mM MES pH 5.5, 100 mM sulfo-NHS, 400 mM EDC (all reconstituted in MES pH 5.5; 100 μl of each mixed in vial immediately before running assay). After switching to the multi-channel array flow cell, the antibodies were injected over the activated chip in a 96-spot array for 15 minutes. The remaining unconjugated active groups on the chip were then blocked by injecting 1M Ethanolamine pH 8.5 (Carterra) for 7 minutes using the single channel flow cell.
After priming with running buffer (HBS-EP+, Teknova) with 0.5 mg/ml BSA (Sigma), the immobilized anti-GPNMB antibodies were tested for their ability to bind to several forms of recombinant GPNMB extracellular domain, including human, cynomolgus, and mouse orthologs as described above. Estimates of affinity were generated by injecting each analyte over the entire antibody array using the single channel flow cell. GPNMB analytes were diluted to 2.5, 7.4, 22, 67, 200, and 600 nM in running buffer, and injected in serial from lowest to highest concentration without regeneration. Two buffer blanks were run between each series (one species per series). Data were processed and analyzed using Kinetics high-throughput kinetics analysis software (Carterra).

Test [2] deals with T2, soluble mouse GPNMB (recombinant extracellular domain) (mouse, UniProt Q99P91 23-502).
T2 construct: also called moGPNMB; not shown: C-terminal polyhistidine or Avi-His tag
T2 sequence: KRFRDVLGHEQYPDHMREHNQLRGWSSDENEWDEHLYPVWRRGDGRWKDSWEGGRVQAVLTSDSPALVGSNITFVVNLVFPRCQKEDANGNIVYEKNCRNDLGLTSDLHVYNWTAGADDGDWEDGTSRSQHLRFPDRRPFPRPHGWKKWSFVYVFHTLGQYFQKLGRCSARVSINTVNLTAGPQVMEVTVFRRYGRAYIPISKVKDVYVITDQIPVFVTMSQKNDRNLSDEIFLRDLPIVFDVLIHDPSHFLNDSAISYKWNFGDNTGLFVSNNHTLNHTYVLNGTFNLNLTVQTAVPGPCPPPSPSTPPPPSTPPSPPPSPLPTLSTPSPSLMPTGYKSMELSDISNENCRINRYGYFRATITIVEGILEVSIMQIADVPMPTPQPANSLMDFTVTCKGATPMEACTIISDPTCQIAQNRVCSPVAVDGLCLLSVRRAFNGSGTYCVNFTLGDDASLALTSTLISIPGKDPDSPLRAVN
Kind of test: SPR Carterra, Ab immobilized. In short, it runs like this:
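Analyte series of GPNMB extracellular domain (2.5, 7.4, 22, 67, 200, 600 nM) flowed in ascending order, no regeneration, over IgG1 antibodies EDC/NHS-immobilized on an HC200M array. HBS-EP+ plus 0.5 mg/ml BSA as running buffer, two blanks per series. Affinity estimated via high-throughput kinetic fitting.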

B1: anti-GPNMB antibody GPN-41 (antibody, human IgG1, V domains shown)
VH: QLQLQQSGTEVVKPGASVKIPCKASGYAFSSYWMNWVKQRPGKGLEWIGQIYPGDGDTNDNGKFEGKATLTVDKSSNTAYIQLSSLTSEDSAVYFCARSPLHLRGSMDYWGQGTSVTVSS
VL: SIVMTQTPKFLLVSAGDRVTITCKASQSVSNDVAWFQQKPGQSPELLIYSASNRYTGVPDRFTASGYGTDFTFTISAVQAEDLAVYFCQQNYYSPFTFGGGTRLEIK
notes: chimeric
B1: the binding result in test [1] is “binds”. For the same molecule, in test [2], the dissociation constant Kd came out at 0.4 nM, the koff stood at 3.7e-05 s⁻¹ and the kon turned out to be 97000 M⁻¹ s⁻¹.

B2: anti-GPNMB antibody GPN-65 (antibody, human IgG1, V domains shown)
VH: QLQLQQSGTEVVKPGASVKIPCKASGYAFSSYWMNWVKQRPGKGLEWIGQIYPGDGDTNDNGKFEGKATLTVDKSSNTAYIQLSSLTSEDSAVYFCARSPLHLRGSMDYWGQGTSVTVSS
VL: SIVMTQTPKFLLVSAGDRVTITCKASQSVSNDVAWFQQKPGQSPELLIYSASNRYTGVPDRFTGSGYGTDFTFTISTVQAEDLAVYFCQQNYYSPFTFGGGTRLEIK
notes: chimeric
Take B2: the binding result in test [1] is given as “binds”. Further, in test [2], the Kd is 0.5 nM, the koff was 5.1e-05 s⁻¹ and the kon is 100000 M⁻¹ s⁻¹.

B3: anti-GPNMB antibody GPN-48 (antibody, human IgG1, V domains shown)
VH: QVQLQQSGPELVKPGASVKLSCRASGYGFSSFWMNWVKQRPGKGLEWIGRIYPGKGDTLYNGKFKDKATLTADESSSTAYMQLSSLTSEDSAVYFCARSIYYYDYWYFDVWDTGTTVTVSS
VL: DIVMTQSHKFMSTSVGDRVNITCKASQDVNSAIAWYQQKPGQSPKLLIYSASYRFIGVPDRFTGSGSGTGFTFTISSVQAEDLAVYYCQQHYTTPLTFGAGTKLELK
notes: chimeric
Consider B3, for which the binding result in test [1] is “binds”.

B4: anti-GPNMB antibody GPN-42 (antibody, human IgG1, V domains shown)
VH: DVKLVESGEDLVKPGGSLKLSCAASGFTFSSYAMSWVRQTPEKRLEWVAYISSGGDYIYYADTVKGRFTISRDNARNTLYLQMSSLKSEDTAMYYCTRDRYYDYDVRDYYTMDYWGQGTSVTVSS
VL: DVMMTQTPLSLPVSLGDQASISCRSSQSLVHSNGNTYLHWFLQKPGQSPKLLIFRVSNRFSGVPDRFSGRGSGTDFTLKISRVEAEDLGVYFCSQTTHVPRTFGGGTTLEIK
notes: chimeric
B4: the binding result in test [1] is recorded as “binds”.

B5: anti-GPNMB antibody GPN-43 (antibody, human IgG1, V domains shown)
VH: EVQLQQSGPELVKPGASVKISCKASGYTFTDYYMNWVRQSHGKSLEWIGDINPYHGGSTYNQKIKVKATLTVDKSSSTAYMELRSLTSEDSAVYYCARNWPYFDYWGQGTTLTVSS
VL: DIQMTQSPASLSASVGETVTITCRASENIYSFLVWYQQKQGKSPQLLVYNAKTLAEGVPSRFSGSGSGTQFSLKISSLQPEDFGSYYCQHHFGTPPYTFGGGTKLEIK
notes: chimeric
With B5, in test [1], the binding result is “binds”.

B6: anti-GPNMB antibody GPN-38 (antibody, human IgG1, V domains shown)
VH: QVQLQQPGAELVRPGTSVRLSCKASGYTFTSYWIHWVKQRPGRGLEWIGVIDPSDSYTNYNQQFNVKATLTVDTSSSAAYMQLSSLTSEDSAVYYCARGLITAVNWYFDVWGTGTTVTVSS
VL: DIQMTQSPASLSTSVGEIVTITCRASENIYSYLTWYQQKQGKSPQLLVYNAKTLAEGVPSRFSGSGSGTQFSLKINSLQPEDFGTYYCQHHYGTPLTFGSGTKLEIK
notes: chimeric
B6: the binding result in test [1] was “binds”. Also, in test [2], the Kd was 3.45 nM, the koff is 7.8e-05 s⁻¹ and the kon was 23000 M⁻¹ s⁻¹.
